From the supplement of paper PMC7125110
± gives the standard error. For some of these results: Variants at the floor of the assay were thinned out.

B1: glmS ribozyme (parent)
chain: AUAAAAGCGCCAGAACUACAGAAAUGUAGUUGACGAGGAGGAGGUUUAUCGAAUUUUCGGCGGAUGCCUCCAAA

Columns and labels:
Conditions in all cases: with glucosamine-6-phosphate
glucosamine-6-phosphate [1] = variants of: B1; test: kcat; higher = faster cleavage; RNA array
Summary of the method: (§1)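 The measurements used barcoded ribozyme variants on sequenced MiSeq chips, transcribed in situ by E. coli RNA polymerase and tracked at 37 °C with a hybridised Cy3 probe. Glucosamine-6-phosphate, 40 μM to 10 mM in HEPES/KCl/Mg(OAc)2 buffer, was flowed in while tiles were imaged over ~14 h. Baseline-normalised signals, also normalised to non-cleaving reference variants, gave per-tile medians that were fit to one- or two-exponential decays for kobs. kcat and KM resulted from weighted Michaelis–Menten fits across concentrations.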

glucosamine-6-phosphate [2] = variants of: B1; test: self-cleavage kobs at 40 uM GlcN6P; higher = faster cleavage; RNA array
Summary of the method: as §1

glucosamine-6-phosphate [3] = variants of: B1; test: self-cleavage kobs at 640 uM GlcN6P; higher = faster cleavage; RNA array
Summary of the method: as §1

glucosamine-6-phosphate [4] = variants of: B1; test: KM; higher = weaker cofactor use; RNA array
Summary of the method: as §1

glucosamine-6-phosphate [5] = variants of: B1; test: self-cleavage kobs at 10000 uM GlcN6P; higher = faster cleavage; RNA array
Summary of the method: as §1

glucosamine-6-phosphate [6] = variants of: B1; test: self-cleavage kobs at 160 uM GlcN6P; higher = faster cleavage; RNA array
Summary of the method: as §1

glucosamine-6-phosphate [7] = variants of: B1; test: self-cleavage kobs at 2500 uM GlcN6P; higher = faster cleavage; RNA array
Summary of the method: as §1

Variant | kcat (glucosamine-6-phosphate [1]) [s⁻¹] | self-cleavage kobs at 40 uM GlcN6P (glucosamine-6-phosphate [2]) [s⁻¹] | self-cleavage kobs at 640 uM GlcN6P (glucosamine-6-phosphate [3]) [s⁻¹] | KM (glucosamine-6-phosphate [4]) [µM] | self-cleavage kobs at 10000 uM GlcN6P (glucosamine-6-phosphate [5]) [s⁻¹] | self-cleavage kobs at 160 uM GlcN6P (glucosamine-6-phosphate [6]) [s⁻¹] | self-cleavage kobs at 2500 uM GlcN6P (glucosamine-6-phosphate [7]) [s⁻¹]
A39C C70A | < 1e-05 | < 1e-05 | < 1e-05 |  |  |  | 
A12U A33U C67U | 0.000242 ± 4.7e-05 |  |  | 6520 ± 2600 | 0.000146 ± 2.9e-05 |  | 
A14C U45G | 0.00127 ± 0.00013 |  | 0.000181 ± 2.6e-05 | 3410 ± 600 | 0.000933 ± 9.1e-05 | 6.63e-05 ± 1.5e-05 | 0.000606 ± 9.4e-05
A33G C70A | 1.84e-05 ± 4.6e-06 |  |  |  |  |  | 
G29U U30G | 0.00393 ± 0.0013 | 9.59e-05 ± 1.7e-05 | 0.00131 ± 0.00023 | 1780 ± 820 | 0.00493 ± 0.001 | 0.000286 ± 5.6e-05 | 0.00182 ± 0.00035
U45A C71A | 0.00337 ± 0.0013 | 0.00019 ± 3.7e-05 | 0.000907 ± 0.00022 |  | 0.00396 ± 0.00073 | 0.000518 ± 0.00016 | 0.00202 ± 0.00085
A42U C70A | 0.00013 ± 6.8e-06 |  |  | 813 ± 290 | 0.00012 ± 9.1e-06 |  | 9.98e-05 ± 1.2e-05
A52U C67U | 0.000336 ± 2.3e-05 |  | 7.82e-05 ± 1e-05 | 2300 ± 310 | 0.00028 ± 2.8e-05 |  | 0.000163 ± 2e-05
G43U U65G | 4.38e-05 ± 9.2e-07 | < 1e-05 |  | 2380 ± 190 | 3.53e-05 ± 1.1e-05 |  | 
U31C U65A | 0.000435 ± 5.4e-05 |  | 0.000114 ± 1.8e-05 | 2000 ± 480 | 0.000385 ± 5.2e-05 | 3.17e-05 ± 1.3e-05 | 0.000217 ± 3.2e-05
G32A U49G | 5.97e-05 ± 1.4e-06 | < 1e-05 | 2.83e-05 ± 1.2e-05 | 741 ± 85 | 5.56e-05 ± 8.3e-06 |  | 4.58e-05 ± 1.1e-05
G32A A64G | 0.00438 ± 0.00041 | 2.33e-05 ± 9.5e-06 | 0.000433 ± 5.6e-05 | 6200 ± 820 | 0.00267 ± 0.00027 | 0.000104 ± 1.8e-05 | 0.00144 ± 0.00035
G29C A48U U69G | 6.26e-05 ± 2.1e-05 |  | 5.01e-05 ± 2.1e-05 |  |  |  | 7.04e-05 ± 3e-05
G32A U56A | 0.000939 ± 0.0002 |  | 9.47e-05 ± 1.5e-05 | 5360 ± 1600 | 0.000619 ± 9.9e-05 | 4.57e-05 ± 1.5e-05 | 0.000295 ± 4.3e-05
G32A U56C | 0.000235 ± 2.8e-05 |  | 4.72e-05 ± 1e-05 | 2950 ± 670 | 0.000191 ± 3.1e-05 |  | 9.95e-05 ± 1.6e-05
G29U U46A | 0.000356 ± 1.1e-05 |  | 7.15e-05 ± 1.2e-05 | 2530 ± 150 | 0.000282 ± 3.6e-05 |  | 0.000184 ± 3.7e-05

Variant | kcat (glucosamine-6-phosphate [1]) [s⁻¹] | self-cleavage kobs at 40 uM GlcN6P (glucosamine-6-phosphate [2]) [s⁻¹] | self-cleavage kobs at 640 uM GlcN6P (glucosamine-6-phosphate [3]) [s⁻¹] | KM (glucosamine-6-phosphate [4]) [µM] | self-cleavage kobs at 10000 uM GlcN6P (glucosamine-6-phosphate [5]) [s⁻¹] | self-cleavage kobs at 160 uM GlcN6P (glucosamine-6-phosphate [6]) [s⁻¹] | self-cleavage kobs at 2500 uM GlcN6P (glucosamine-6-phosphate [7]) [s⁻¹]
A12C C68U | 0.000589 ± 4.7e-05 |  | 0.00018 ± 1.7e-05 | 1370 ± 220 | 0.000494 ± 3.6e-05 | 6.12e-05 ± 8.3e-06 | 0.000436 ± 3.7e-05
G38U C68G | 0.000246 ± 5.7e-05 | 6.28e-05 ± 1e-05 | 0.000294 ± 4.2e-05 | 108 ± 52 | 0.000182 ± 4e-05 | 0.000349 ± 0.00017 | 
U47G G66U | 0.000146 ± 7.9e-06 |  | 6.79e-05 ± 8.7e-06 | 756 ± 130 | 0.000142 ± 1.4e-05 | 3.12e-05 ± 1.5e-05 | 0.000106 ± 1.1e-05
U45A U46G | 0.0594 ± 0.012 | 0.00256 ± 0.00026 | 0.0264 ± 0.006 | 939 ± 230 | 0.0669 ± 0.021 | 0.00762 ± 0.0012 | 0.0366 ± 0.012
A53U U65C | 0.000266 ± 3.1e-05 |  | 8.76e-05 ± 1.6e-05 | 1370 ± 310 | 0.000222 ± 4.6e-05 |  | 0.000196 ± 5.3e-05
A15G C70G | 0.000355 ± 6.5e-05 | 8.28e-05 ± 1.3e-05 | 0.000303 ± 2.7e-05 | 180 ± 79 | 0.00033 ± 5.4e-05 | 0.000137 ± 1.9e-05 | 
C10G G51U C68U C70U | < 1e-05 |  |  |  |  |  | 
A33U A39C | 1.74e-05 ± 2.5e-06 |  |  | 3650 ± 1600 |  |  | 
A14G A42G A53G | 0.0447 ± 0.015 | 0.00216 ± 0.00072 |  | 781 ± 340 | 0.0405 ± 0.019 |  | 
G32C C50G | 5.17e-05 ± 1.5e-05 | 4.21e-05 ± 1.5e-05 | 6.25e-05 ± 2e-05 |  |  |  | 
G29A U65A | 0.000167 ± 6.7e-05 |  | 0.000132 ± 3e-05 |  |  |  | 0.000122 ± 2.8e-05
C11U U46C | 7.67e-05 ± 2e-05 | < 1e-05 | 3.45e-05 ± 1.3e-05 |  | 6.92e-05 ± 1.1e-05 |  | 3.71e-05 ± 9.8e-06
G37C U54C | 6.94e-05 ± 3e-05 |  |  |  | 3.48e-05 ± 7.4e-06 |  | 
U47C C67U | 0.000295 ± 6.9e-05 |  | 0.000131 ± 3.2e-05 |  | 0.000358 ± 6e-05 | 6.7e-05 ± 2.4e-05 | 0.000177 ± 3.5e-05
U31A U54A | 0.011 ± 0.003 | 0.000241 ± 4.8e-05 | 0.00342 ± 0.00062 | 1640 ± 590 | 0.0126 ± 0.0031 | 0.00112 ± 0.00023 | 0.00508 ± 0.0013
